Assay [1] concerns the target T1, recombinant human BTN3A1-His (Sino Biological Cat. No. 15973-H08H) (human, UniProt O00481 30-254).
T1 construct: Bought protein; also called BTN3A1 His-tagged antigen; CD277; not shown: C-terminal His tag
The assay is described as follows: SPR Biacore single cycle kinetics; BTN3A1-His captured via anti-His, IgG analyte, bivalent analyte fit. The procedure:
(§1) All single cycle kinetic experiments were run at 25° C. with HBS-P+ running buffer (pH 7.4) containing 0.1% BSA (GE Healthcare, Little Chalfont, UK).
(§2) BTN3A1 His-tagged antigen (Sino Biological, Beijing, China) was diluted in running buffer to a final concentration of 0.4 μg/ml. At the start of each cycle, BTN3A1-His was captured onto Fc2 of CM5 sensor chip pre-coupled using a His capture kit (GE Healthcare, Little Chalfont, UK) with standard amine chemistry at a flow rate of 10 μl/min. An immobilization level (RL) of ~34 RU, 16 RU or 11 RU, the different theoretical values to obtain a RMax of ~50 RU was used for the analytes Fab, F(ab′) 2 and IgG respectively. The surface was then allowed to stabilize. Single cycle kinetic data was obtained with the purified samples (Fab, F(ab′)₂ and IgG) at a flow rate of 40 μl/min to minimize any potential mass transfer effects. The signal from the reference channel Fc1 (no antigen capture) was subtracted from that of Fc2 to correct for differences in non-specific binding to the reference surface. The signal for BTN3A1-His blank runs (no analyte) were subtracted to correct for differences in surface stability. The association phase for the five injections of increasing concentrations was monitored for 240 seconds each time and a single dissociation phase was measured for 1400 seconds following the last injection of analyte. Regeneration of the chip surface was conducted using two injections of 10 mM glycine-HCL pH 1.5 followed by a stabilization period of 240 seconds. Raw sensorgrams were fitted with a 1:1 model for Fab samples and with a bivalent analyte model for F(ab′)₂ and IgG samples in agreement with the different valences of the analytes. The kinetic constants were calculated for each variant (see Tables 10, 11 and 12).
(SPR reads the build-up and loss of mass on a sensor chip optically.)

For assay [2], the target named is T2, BTN3A3-CFP on HEK293T BTN3KO cells (human, UniProt O00478 30-584).
T2 construct: Transient transfection of BTN3A knock-out HEK293T; also called HEK293T BTN3KO + 3A3-CFP; not shown: CFP fusion partner
T2 sequence (O00478 30-584): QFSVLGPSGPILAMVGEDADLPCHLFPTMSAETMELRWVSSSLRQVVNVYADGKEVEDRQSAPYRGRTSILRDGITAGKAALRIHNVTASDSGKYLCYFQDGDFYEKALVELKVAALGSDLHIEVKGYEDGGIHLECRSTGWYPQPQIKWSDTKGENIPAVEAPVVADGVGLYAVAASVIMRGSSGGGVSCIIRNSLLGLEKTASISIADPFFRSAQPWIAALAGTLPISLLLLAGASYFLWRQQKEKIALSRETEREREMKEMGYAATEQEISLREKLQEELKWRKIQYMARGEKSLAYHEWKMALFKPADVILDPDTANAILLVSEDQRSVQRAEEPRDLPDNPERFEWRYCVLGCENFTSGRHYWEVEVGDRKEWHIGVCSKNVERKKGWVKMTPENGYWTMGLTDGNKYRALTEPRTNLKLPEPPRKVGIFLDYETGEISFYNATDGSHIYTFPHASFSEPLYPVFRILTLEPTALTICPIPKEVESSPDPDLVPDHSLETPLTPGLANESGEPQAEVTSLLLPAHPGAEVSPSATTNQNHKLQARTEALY
In words: flow cytometry on HEK293T BTN3KO transiently transfected with BTN3A3-CFP, gated CFP+ (n = 5). On the technique in general: A flow cytometer gives signals particle by particle.

The target of assay [3] is T3, BTN3A1-CFP on HEK293T BTN3KO cells (human, UniProt O00481 30-513).
T3 construct: Transient transfection of BTN3A knock-out HEK293T; also called HEK293T BTN3KO + 3A1-CFP; not shown: CFP fusion partner
T3 sequence (O00481 30-513): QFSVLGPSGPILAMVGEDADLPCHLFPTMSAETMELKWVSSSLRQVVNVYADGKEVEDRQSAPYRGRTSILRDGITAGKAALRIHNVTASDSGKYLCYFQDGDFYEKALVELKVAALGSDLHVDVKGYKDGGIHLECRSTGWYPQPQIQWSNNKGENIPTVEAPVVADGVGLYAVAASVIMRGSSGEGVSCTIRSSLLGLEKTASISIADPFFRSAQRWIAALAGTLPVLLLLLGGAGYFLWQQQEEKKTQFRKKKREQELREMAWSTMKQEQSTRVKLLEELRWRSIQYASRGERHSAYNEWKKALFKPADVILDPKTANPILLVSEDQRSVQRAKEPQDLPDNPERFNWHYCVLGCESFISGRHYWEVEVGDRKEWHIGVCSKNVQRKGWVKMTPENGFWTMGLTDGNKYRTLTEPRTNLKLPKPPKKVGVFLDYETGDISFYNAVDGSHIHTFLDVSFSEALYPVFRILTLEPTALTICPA
The assay is described as follows: flow cytometry on HEK293T BTN3KO transiently transfected with BTN3A1-CFP, gated CFP+ (n = 4).

Assay [4] addresses T4, BTN3A2-CFP on HEK293T BTN3KO cells (human, UniProt P78410 30-334).
T4 construct: Transient transfection of BTN3A knock-out HEK293T; also called HEK293T BTN3KO + 3A2-CFP; not shown: CFP fusion partner
In words: flow cytometry on HEK293T BTN3KO transiently transfected with BTN3A2-CFP, gated CFP+ (n = 5).

The target of assay [5] is T1, recombinant human BTN3A1-His (Sino …). The assay is described as follows: SPR Biacore single cycle kinetics; BTN3A1-His captured via anti-His, IgG analyte, bivalent analyte fit (Kd 1). The method, then:
as §1
as §2, with “The signal for BTN3A1-His blank runs (no analyte) were subtracted to correct for differences in surface stability.” left out, “Regeneration of the chip surface was conducted using two injections of 10 mM glycine-HCL pH 1.5 followed by a stabilization period of 240 seconds. Raw sensorgrams were fitted with a 1:1 model for Fab samples and with a bivalent analyte model for F(ab′)₂ and IgG samples in agreement with the different valences of the analytes.” left out

Assay [6] shares this target. The assay is described as follows: SPR Biacore single cycle kinetics; BTN3A1-His captured via anti-His, IgG analyte, bivalent analyte fit (Ka1). The method, then:
as §1
as §2, with “The signal for BTN3A1-His blank runs (no analyte) were subtracted to correct for differences in surface stability.” left out, “Regeneration of the chip surface was conducted using two injections of 10 mM glycine-HCL pH 1.5 followed by a stabilization period of 240 seconds. Raw sensorgrams were fitted with a 1:1 model for Fab samples and with a bivalent analyte model for F(ab′)₂ and IgG samples in agreement with the different valences of the analytes.” left out

Assay [7] has the same target. In words: SPR Biacore multi-cycle kinetics; antibody captured on Protein A, BTN3A1-His analyte, 1:1 fit.
Assay [8] shares this target. In words: SPR Biacore single cycle kinetics; BTN3A1-His captured via anti-His, F(ab′)2 analyte, bivalent analyte fit. The method, then: as §1
as §2, with “The signal for BTN3A1-His blank runs (no analyte) were subtracted to correct for differences in surface stability.” left out, “Regeneration of the chip surface was conducted using two injections of 10 mM glycine-HCL pH 1.5 followed by a stabilization period of 240 seconds. Raw sensorgrams were fitted with a 1:1 model for Fab samples and with a bivalent analyte model for F(ab′)₂ and IgG samples in agreement with the different valences of the analytes.” left out

The values below come from patent publication US20260242483A1 (IMCHECK THERAPEUTICS, published 2026).

Where a chain is given by its changes, count along the chain named. Numbers in names are those of the source.

T1 sequence (O00481 30-254 limits assumed): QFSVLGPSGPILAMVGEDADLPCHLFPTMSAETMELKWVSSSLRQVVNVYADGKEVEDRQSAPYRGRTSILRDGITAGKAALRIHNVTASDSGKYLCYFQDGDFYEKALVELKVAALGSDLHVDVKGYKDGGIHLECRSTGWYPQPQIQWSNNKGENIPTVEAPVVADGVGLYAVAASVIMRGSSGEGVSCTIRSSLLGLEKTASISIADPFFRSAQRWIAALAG
T4 sequence (P78410 30-334): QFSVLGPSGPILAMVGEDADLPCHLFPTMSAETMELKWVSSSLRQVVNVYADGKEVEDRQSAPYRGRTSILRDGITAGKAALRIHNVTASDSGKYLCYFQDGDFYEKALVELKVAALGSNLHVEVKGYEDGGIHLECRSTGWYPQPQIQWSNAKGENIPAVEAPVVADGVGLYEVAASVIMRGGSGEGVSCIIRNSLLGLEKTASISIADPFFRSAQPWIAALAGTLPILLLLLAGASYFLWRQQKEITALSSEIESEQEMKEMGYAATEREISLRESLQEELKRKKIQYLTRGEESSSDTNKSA

B1: mAb1 (antibody, human IgG1, kappa)
heavy: QVQLVQSGAEVKKPGASVKLSCKASGYIFTRYYMYWVKQRPGQGLEWIGEINPNNGGTKFNEKFKNRATLTVDKSISTAYMELSRLRSDDTAVYYCSREDDYDGTPFAMDYWGQGTLVTVSSASTKGPSVFPLAPSSKSTSGGTAALGCLVKDYFPEPVTVSWNSGALTSGVHTFPAVLQSSGLYSLSSVVTVPSSSLGTQTYICNVNHKPSNTKVDKRVEPKSCDKTHTCPPCPAPEFEGGPSVFLFPPKPKDTLMISRTPEVTCVVVDVSHEDPEVKFNWYVDGVEVHNAKTKPREEQYNSTYRVVSVLTVLHQDWLNGKEYKCKVSNKALPASIEKTISKAKGQPREPQVYTLPPSREEMTKNQVSLTCLVKGFYPSDIAVEWESNGQPENNYKTTPPVLDSDGSFFLYSKLTVDKSRWQQGNVFSCSVMHEALHNHYTQKSLSLSPG
light: not shown
notes: Humanized 7.2 (VH2/Vk1), silent IgG1 L247F/L248E/P350S, kappa; also called 7.2 VH2/VK1 IgG1; IgG1 7.2 VH2/VK1
B1: in assay [1], the “Kd 2” value was 44 s⁻¹. Further, the figures for the EC50 in assay [2], in assay [3] and in assay [4] were 1.75 µg/mL, 2.4 µg/mL and 1.88 µg/mL, respectively.

B2: mAb2 (antibody, human IgG1, kappa)
heavy: B1 heavy
light: not shown
notes: Humanized 7.2 (VH2/Vk2), silent IgG1 L247F/L248E/P350S, kappa; also called 7.2 VH2/VK2 IgG1; IgG1 7.2 VH2/VK2
B2: in assay [1], the “Kd 2” value came to 0.0241 s⁻¹.

B3: mAb3 (antibody, V domains shown)
VH: QVQLVQSGAEVKKPGASVKVSCKASGYTFNGYYIHWVRQAPGQGLEWMGWINSNSGGTKYAQKFQGRVTMTRDTSISTAYMELSRLRSDDTAVYYCARRHSDMIGYYYGMDVWGQGTTVTVSS
VL: DIQMTQSPSSVSASVGDRVTITCRASQGISSWLAWYQQKPGKAPKLLIYAASSLQSGVPSRFSGSGSGTDFTLTISSLQPEDFATYYCQQATDFPPTFGGGTKVEIKR
B3: the koff in assay [5] was 0.00379 s⁻¹. Further, the “Kd 2” value in assay [1] is 8.6e-05 s⁻¹. In addition, in assay [6], the kon was determined as 56300 M⁻¹ s⁻¹.

B4: mAb6 (antibody, V domains shown)
VH: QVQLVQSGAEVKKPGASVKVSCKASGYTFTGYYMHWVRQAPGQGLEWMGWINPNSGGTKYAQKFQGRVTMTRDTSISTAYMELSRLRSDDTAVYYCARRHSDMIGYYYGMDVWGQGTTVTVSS
VL: B3 VL with V11L, G28S, S31L, W32F, A34N, A50T, T92N, D93S, E105D
Regarding B4, the Kd in assay [7] came to 0.319 nM.

B5: Chimeric 7.2 (VH0/Vκ0) (antibody, V domains shown)
VH: QVQLQQSGAELVKPGASVKLSCKASGYIFTRYYMYWVKQRPGQGLEWIGEINPNNGGTKFNEKFKNKATLTVDKFSSTAYMQLRSLTSEDSAVYYCSREDDYDGTPFAMDYWGQGTSVTVSS
VL: DIQMNQSPSSLSASLGDTITITCHASQNINVWLSWYQQKPGNIPKLLIYKASNLHTGVPSRFTGSGSGTGFTLTISSLQPEDIATYYCQQGQTYPYTFGGGTKLEIK
notes: not used; also called 7.2 VH0/Vk0; chimeric 7.2 antibody
Take B5: in assay [7], the Kd was 0.176 nM.

B6: 7.2 VH2/VK1 F(ab′)2 (other)
heavy: QVQLVQSGAEVKKPGASVKLSCKASGYIFTRYYMYWVKQRPGQGLEWIGEINPNNGGTKFNEKFKNRATLTVDKSISTAYMELSRLRSDDTAVYYCSREDDYDGTPFAMDYWGQGTLVTVSS
light: not shown
notes: not shown: IgG4 CH1 and hinge up to the pepsin cleavage site
On to B6, for which, in assay [8], the “Kd 2” value was determined as 32.4 s⁻¹.

B7: 7.2 VH2/VK2 F(ab′)2 (other)
heavy: B6 heavy
light: not shown
notes: as for B6
As to B7, in assay [8], the “Kd 2” value came out at 54.6 s⁻¹.

As a reminder, the EC50 is the concentration giving half of the maximal effect. Low readings indicate greater potency, high ones weaker potency. In general, koff refers to the rate constant with which the complex falls apart. In general, kon refers to the rate constant with which the complex forms. Broadly, the Kd is the equilibrium constant for the complex coming apart.
